Solubility assay: share of TDP-43 in the insoluble fraction after heat stress with rapamycin (80% without rapamycin) (% of TDP-43 in the insoluble fraction) data for one substance are collected here from paper PMC12394070.

This experiment has as its target HA–TDP-43–FKBP.

FRB–PML–Myc came in with a solubility assay: share of TDP-43 in the insoluble fraction after heat stress with rapamycin (80% without rapamycin) (% of TDP-43 in the insoluble fraction) of 20.
